Laboratory results as given in the supplement of paper PMC9732359.
± gives the uncertainty stated by the source.

Experiment: protein stability index of a GFP-peptide fusion (yeast GPS) (PSI 1-4); higher = more stable; sorted into four equal gates, so the index is relative within each strain
How it was run: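 For each peptide, the protein stability index sums the read frequency in every gate after multiplying it by the gate number. Read frequencies came from plasmids that were PCR-amplified from each gate and Illumina-sequenced, with reads assigned to strains by barcodes. The gates were four equal bins of GFP/Cherry fluorescence ratio applied to mid-log yeast in leucine-free medium carrying a pooled library of tiled 17-residue yeast protein peptides fused downstream of GFP on a Cherry-expressing plasmid.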

| Sequence | protein stability index (doa10∆) | protein stability index (pdr5∆) | protein stability index (san1∆) | protein stability index (ubr1∆) |
| --- | --- | --- | --- | --- |
| GQPVNDFIDTATRHVLM [RPS3] | 2.96 ± 0.081 | 3.02 ± 0.06 | 3.1 ± 0.051 | 2.96 ± 0.07 |
| NNKNKRVTGAGGQQRRM [RPC53] |  | 2.78 ± 0.2 |  | 3.33 ± 0.073 |
| RDLKPSNLEKLLFINSS [YML103C/NUP188] | 1.93 ± 0.11 | 1.91 ± 0.093 | 1.66 ± 0.13 | 1.69 ± 0.1 |
| REPRVVSALQMLKQHLF [PUP1] | 3.1 ± 0.13 | 3.05 ± 0.094 | 3.02 ± 0.066 | 2.79 ± 0.049 |
| GTNNARLAQLLRQLASY [RPN1] | 3.17 ± 0.092 | 3.09 ± 0.083 | 3.21 ± 0.097 | 3.14 ± 0.096 |
| KILSILNRSHFATTKAE [ECM29] | 2.68 ± 0.076 | 2.33 ± 0.048 | 2.4 ± 0.047 | 2.19 ± 0.037 |
| NSLFYLKWSACTSLMDI [IRR1] | 1.68 ± 0.073 | 2.31 ± 0.047 | 1.61 ± 0.13 | 1.83 ± 0.042 |
| VEPVTERTKLQEHTIFT [SNU114] | 2.2 ± 0.2 | 2.35 ± 0.074 | 1.8 ± 0.21 |  |
| MLASQANGGSTIISPHK [DSN1] | 3.42 ± 0.17 | 3.43 ± 0.14 | 3.45 ± 0.073 | 3.28 ± 0.15 |
| IESIVNLAPKLRNVFLG [GRR1] | 1.94 ± 0.13 | 1.41 ± 0.085 | 1.26 ± 0.14 | 1.42 ± 0.064 |
| KELDALQEKEQLYFKKK [ISW2] | 3.22 ± 0.11 | 3.15 ± 0.14 | 3.24 ± 0.25 | 3.55 ± 0.11 |
| RYVNLLGVTYSSPTLAT [PRE4] | 1.12 ± 0.11 | 1.35 ± 0.13 | 1.47 ± 0.17 | 1.1 ± 0.12 |
| VQYLRSVQDLGGSATAR [YML031W/NDC1] | 2.14 ± 0.13 | 1.5 ± 0.069 | 1.53 ± 0.22 | 1.57 ± 0.064 |
| ADYRLILTGTPLQNNLP [SNF2] | 2.08 ± 0.047 | 2.15 ± 0.043 | 1.65 ± 0.058 | 2.03 ± 0.037 |
| AGGEAGEAEAEKEEEEA [RPP1A] |  | 3.47 ± 0.21 | 2.54 ± 0.22 | 3.5 ± 0.18 |
| LLRSRLATRRVLQEYRL [RPO21] | 2.62 ± 0.067 | 2.07 ± 0.083 | 2.27 ± 0.11 | 1.63 ± 0.072 |
| LGNDIPHDLIIGTADIF [BRR2] | 2.6 ± 0.055 | 2.76 ± 0.068 | 2.84 ± 0.059 | 2.86 ± 0.047 |
| QAQAQAQAQAQAQAQAQ [GAL11] | 2.84 ± 0.032 | 3.1 ± 0.034 | 3.101 ± 0.024 | 3.04 ± 0.033 |
| DDMDIDEVNDRSDISDS [PCI8] | 3.22 ± 0.12 | 3.1 ± 0.1 | 3.26 ± 0.048 | 3.02 ± 0.085 |
| TKKSKLESTKAETDYVD [DSN1] | 2.58 ± 0.073 | 2.9 ± 0.069 | 2.73 ± 0.087 | 3.03 ± 0.059 |
| PFTASQSNINTNAPLRT [YIL149C/MLP2] | 2.37 ± 0.12 | 2.49 ± 0.089 | 2.11 ± 0.075 | 2.08 ± 0.053 |
| QREDKLKSHYYQTCKNS [SMC2] | 1.24 ± 0.073 | 1.25 ± 0.057 | 1.63 ± 0.071 | 1.42 ± 0.054 |
| LEALMDILLCYQKLFSQ [SRB8] | 2.98 ± 0.055 | 3.16 ± 0.052 | 3.18 ± 0.048 | 3.05 ± 0.081 |
| FTRIFLPIYDSLMSSQN [SIR3] | 2.24 ± 0.045 | 2.05 ± 0.038 | 1.99 ± 0.074 | 2.21 ± 0.037 |
| LLDAYSHIESDSTSHNN [MED1] | 2.73 ± 0.051 | 2.93 ± 0.048 | 2.6 ± 0.057 | 2.89 ± 0.038 |
| KGKKGQKKRVVDPFTRK [RPS1A] | 3.25 ± 0.13 | 3.69 ± 0.18 | 3.19 ± 0.15 | 3.47 ± 0.056 |
| FKKDLVIVLSNISHLLE [SWI1] | 1.86 ± 0.048 | 1.63 ± 0.067 | 1.75 ± 0.078 | 1.93 ± 0.061 |

| Sequence | protein stability index (doa10∆) | protein stability index (pdr5∆) | protein stability index (san1∆) | protein stability index (ubr1∆) |
| --- | --- | --- | --- | --- |
| VAAAGITASTLLYADSL [CYT1] | 1.89 ± 0.068 | 2.12 ± 0.078 | 1.75 ± 0.14 | 1.93 ± 0.078 |
| PINLPPQIAQLPLATQQ [SNF5] | 2.15 ± 0.071 | 2.49 ± 0.059 | 2.46 ± 0.089 | 2.27 ± 0.053 |
| VVDVALKYPELSIKNSF [NUT1] | 3.04 ± 0.071 | 2.94 ± 0.056 | 2.97 ± 0.059 | 2.77 ± 0.047 |
| VDKNGAHLYMLEPSGSY [PRE10] | 2.04 ± 0.057 | 2.19 ± 0.064 | 2.92 ± 0.063 | 2.52 ± 0.058 |
| EKNDQNNDDDDNSVEQG [MCD1] |  | 3.15 ± 0.22 |  |  |
| SSLNGTNAKIPQFDSTQ [SSN3] | 3.06 ± 0.08 | 3 ± 0.093 | 2.98 ± 0.067 | 2.97 ± 0.063 |
| LASPEVKVHMDSETSDP [DIS3] | 3.09 ± 0.082 | 3.38 ± 0.071 | 3.03 ± 0.071 | 3.12 ± 0.051 |
| FSKIAEYYRIQKQLPQK [ESC2] | 3.18 ± 0.16 | 2.99 ± 0.15 | 3.26 ± 0.088 | 3.19 ± 0.17 |
| IEPFECVEISHISKIIG [RPN6] | 2.47 ± 0.14 |  | 1.94 ± 0.3 |  |
| LLESYKTLSLKSMASAF [RPN7] | 1.67 ± 0.093 | 2.31 ± 0.11 | 1.89 ± 0.14 | 1.12 ± 0.033 |
| QLELRQLNASISLIPEL [RRI2] | 2.55 ± 0.062 | 2.58 ± 0.069 | 2.42 ± 0.063 | 2.85 ± 0.043 |
| LENFKSYAGKQVVGPFH [SMC4] | 3.04 ± 0.076 | 3.2 ± 0.19 | 2.98 ± 0.11 | 2.98 ± 0.1 |
| KGRKTNKYANNDFANNL [CSL4] | 3.28 ± 0.066 | 3.14 ± 0.053 | 3.13 ± 0.051 | 3.15 ± 0.095 |
| QYYVTQHDKMVDKIFEK [SWI1] | 2.96 ± 0.1 | 2.42 ± 0.06 | 2.68 ± 0.068 | 2.84 ± 0.034 |
| KNKYLKDVLAQTSVTTN [SWP82] | 2.5 ± 0.065 | 2.5 ± 0.06 | 2.71 ± 0.098 | 2.37 ± 0.044 |
| NDSFKGLITNKMWFDVQ [PRP8] | 2.98 ± 0.16 | 2.99 ± 0.085 | 3.03 ± 0.11 | 3.08 ± 0.087 |
| KAISVGANTSAAQTLLQ [PRE9] | 2.74 ± 0.054 | 2.92 ± 0.052 | 2.77 ± 0.053 | 2.92 ± 0.046 |
| RSWTLTSEMKVLSIPPA [YGL100W/SEH1] | 2.13 ± 0.054 | 2.18 ± 0.069 | 2.37 ± 0.064 | 2.1 ± 0.072 |
| LNEIKEHKIVVLGNSRG [RPN14] | 3.57 ± 0.19 |  | 3.18 ± 0.15 |  |
| KNAGLGFKTPKTAIEGS [RPS11A] | 3.01 ± 0.047 | 3.12 ± 0.055 | 3.11 ± 0.035 | 3.13 ± 0.041 |
| AKAPSGLDQSRIPFSER [FAS1] | 2.19 ± 0.081 | 2.19 ± 0.061 | 2.12 ± 0.25 | 2.56 ± 0.047 |
| SNISDEKSRISERDSKD [YMR129W/POM152] | 3.06 ± 0.1 | 3.12 ± 0.076 | 2.87 ± 0.075 | 3.13 ± 0.063 |
| MAGSQFENGNITGEDEV [RRP45] | 3.02 ± 0.095 | 3.08 ± 0.1 | 3.13 ± 0.13 | 2.95 ± 0.09 |
| SEGISEATREVFGISKT [ITC1] |  | 3.42 ± 0.16 |  | 3.28 ± 0.2 |
| DRSKPVALTSFLGYKAG [RPL3] | 2.85 ± 0.075 | 2.89 ± 0.063 | 3.08 ± 0.06 | 2.09 ± 0.036 |
| PSTSITLAERQQLAYDL [RPN9] | 2.91 ± 0.045 | 3.09 ± 0.06 | 2.8 ± 0.06 | 2.94 ± 0.033 |
